What all share (conditions): protein: recombinant; tags: C-terminal His6; label: 5' fluorescein or TAMRA (FA); unlabeled (NMR)
One series has as its target T1, Nrd1 307-491 K380A (Saccharomyces cerevisiae, UniProt P53617 307-491, K380A).
T1 sequence: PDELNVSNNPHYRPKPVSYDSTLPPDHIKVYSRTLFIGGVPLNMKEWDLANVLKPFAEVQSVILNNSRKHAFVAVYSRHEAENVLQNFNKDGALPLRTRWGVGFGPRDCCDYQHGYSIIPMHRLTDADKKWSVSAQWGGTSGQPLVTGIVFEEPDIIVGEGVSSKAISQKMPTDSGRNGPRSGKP
The series is described as follows: fluorescence anisotropy; text says binding abolished; FA: 10 nM RNA, 50 mM sodium phosphate pH 8, 150 mM NaCl, 10 mM beta-mercaptoethanol, 20 C (protein stock in 300 mM NaCl); NMR: same buffer with 300 mM NaCl, 20. For orientation: Fluorescence polarisation rises when a labelled molecule tumbles more slowly, as on binding a larger partner.

The target of another series is T2, Nrd1 307-491 R429D (Saccharomyces cerevisiae, UniProt P53617 307-491, R429D).
T2 sequence: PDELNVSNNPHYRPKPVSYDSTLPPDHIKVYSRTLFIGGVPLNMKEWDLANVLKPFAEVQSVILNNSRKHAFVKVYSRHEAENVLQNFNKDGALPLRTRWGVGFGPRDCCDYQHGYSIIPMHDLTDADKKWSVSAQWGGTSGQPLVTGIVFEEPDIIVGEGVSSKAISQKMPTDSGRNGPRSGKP
The series can be described thus: fluorescence anisotropy; FA: 10 nM RNA, 50 mM sodium phosphate pH 8, 150 mM NaCl, 10 mM beta-mercaptoethanol, 20 C (protein stock in 300 mM NaCl); NMR: same buffer with 300 mM NaCl, 20.

The next series addresses T3, Nrd1 307-491 Y382A (Saccharomyces cerevisiae, UniProt P53617 307-491, Y382A).
T3 sequence: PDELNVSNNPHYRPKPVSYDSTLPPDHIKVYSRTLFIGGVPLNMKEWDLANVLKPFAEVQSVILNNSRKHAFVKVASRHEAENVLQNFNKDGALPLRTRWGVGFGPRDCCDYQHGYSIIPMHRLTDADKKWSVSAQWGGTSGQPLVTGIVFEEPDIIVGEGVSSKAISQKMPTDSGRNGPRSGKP
Described as above.

Another series concerns the target T4, Nrd1 307-491 H376A (Saccharomyces cerevisiae, UniProt P53617 307-491, H376A).
T4 sequence: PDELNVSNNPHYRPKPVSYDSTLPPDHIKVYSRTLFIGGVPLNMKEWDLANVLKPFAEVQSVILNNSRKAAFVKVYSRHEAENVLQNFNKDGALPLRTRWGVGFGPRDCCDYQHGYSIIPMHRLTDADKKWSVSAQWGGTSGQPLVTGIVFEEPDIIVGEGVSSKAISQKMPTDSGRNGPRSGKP
The series is described as above.

The target of the next series is T5, Nrd1 307-491 WT (Saccharomyces cerevisiae, UniProt P53617 307-491).
T5 sequence: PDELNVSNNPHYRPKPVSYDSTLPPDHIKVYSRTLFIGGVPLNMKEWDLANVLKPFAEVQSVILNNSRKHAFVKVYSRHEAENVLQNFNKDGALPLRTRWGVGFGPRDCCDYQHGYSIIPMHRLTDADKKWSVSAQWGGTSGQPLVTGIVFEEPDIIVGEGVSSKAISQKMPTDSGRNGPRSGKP
The description is as above.

The target of another series is T6, Nrd1 307-491 N349A (Saccharomyces cerevisiae, UniProt P53617 307-491, N349A).
T6 sequence: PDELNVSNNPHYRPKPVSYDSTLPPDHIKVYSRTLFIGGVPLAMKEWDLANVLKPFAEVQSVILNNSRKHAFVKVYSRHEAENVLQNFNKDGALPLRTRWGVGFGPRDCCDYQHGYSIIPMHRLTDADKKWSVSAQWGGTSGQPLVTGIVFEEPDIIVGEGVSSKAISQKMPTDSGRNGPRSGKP
The series is described as above.

The values below come from publication PMC4081072, “Structure and semi-sequence-specific RNA binding of Nrd1”.

Usually Kd stands for the free concentration of one partner at which half of the binding sites on the other are occupied at equilibrium, for simple one-to-one binding.

B1: GUAA (ssRNA)
RNA: GUAA
With B1, the Kd with Nrd1 307-491 K380A was found to be 442 ± 24.7 µM; with Nrd1 307-491 R429D it was 24.1 ± 1.7 µM; in the series with Nrd1 307-491 Y382A, 32.1 ± 1.3 µM; with Nrd1 307-491 H376A, 59.1 ± 2.6 µM; with Nrd1 307-491 WT, 10.1 ± 0.8 µM; in the series with Nrd1 307-491 N349A it was 10.2 ± 0.5 µM.
